Measurements: patent US20250043302A1, “MUTATED HYDROXYPHENYLPYRUVATE DIOXYGENASE POLYPEPTIDE, AND CODING GENE AND USE THEREOF” (BEIJING DABEINONG BIOTECHNOLOGY CO., LTD., priority 2021, published 2025)

B1: BnHPPDm-F372A-02: nucleotide sequence encoding Brassica napus HPPD with F372A; vector DBN11743 (nucleic acid)
DNA: ATGGGACATGAAAACGCGGCAGTGTGTGAAACTCAACAACATGATGACGCCGCCTCCCCGGGGTTTAAACTTGTCGGGTTCTCAAAATTTGTTAGGAAGAATCCAAAGTCTGACAAGTTCAAGGTGAAACGCTTCCACCACATCGAGTTCTGGTGCGGGGATGCAACAAATGTTTCACGCCGCTTTTCATGGGGACTAGGAATGAGGTTTAGCGCAAAGAGTGATCTCTCCACTGGTAATATGGTTCATGCGAGCTACTTGCTCACATCTGGAGACCTGAGATTCCTCTTCACCGCACCATATTCTCCCTCCCTGTCAGCTGGTGAAGCTCAGCCTTCAGCAACTGCAAGTATCCCTTCGTTTGATCATGCATCGTGCAGGTCTTTCTTCAGTTCACATGGACTCGGCGTCAGAGCAGTAGCGATCGAAGTAGAGGATGCTGAATCAGCTTTCTCCATATCTGTCGCCAACGGCGCGGTGCCTTCTTCTCCACCAAACGTCTTGAATGGTGCTGTTACCATTGCTGAGGTGAAGCTGTACGGAGATGTTGTTTTAAGATATGTTTCATATTACAATGGGACCGTTTCTTTTCTTCCCGGCTTTGAATCTGTTGATGATACTTCTTCCTTCCCTCTTGATTATGGGATCAGGCGGCTGGACCACGCCGTCGGCAACGTGCCGGAGTTAGGTCCTGCTTTGACATATCTTGCCGGCTTCACTGGATTCCATCAATTTGCAGAGTTTACGGCTGACGACGTGGGGACCGCGGAGAGTGGGCTGAACTCAGCAGTCTTGGCCAACAATGATGAAATGGTGCTCCTCCCCATCAATGAACCTGTGCATGGAACAAAGAGAAAGTCGCAGATTCAAACATTTTTAGAGCACAATGAGGGAGCTGGGCTACAGCACCTCGCATTGATGTCAGAAGATATTTTTCGAACGTTGAGGGAGATGCGGAAACGATCTGGTGTAGGCGGCTTTGACTTCATGCCATCCCCTCCGCCAACCTACTACAAGAACCTGAAGAAGAGGGTTGGAGACGTCCTTTCCGAGGAGCAAATTGAAGAATGTGAGGAGCTTGGAATTCTGGTGGACAGAGATGATCAAGGAACACTACTTCAGATCGCCACAAAACCATTGGGCGACAGGCCAACGATATTCATTGAGATCATTCAGCGCGTTGGATGCATGAAGCGTGATGAGGAAGGGAAGGTCTACCAGAGTGGCGGTTGTGGTGGATTTGGAAAAGGAAATTTTTCTGAGCTGTTCAAAAGCATAGAAGAGTATGAGAAAACATTGGAGGCCAAGCAGCTTGTTGGTTGA
modifications: BnHPPDm-F372A-02 Nucleotide Sequence
notes: vector DBN11743
B2: BnHPPDm-F383W-02: nucleotide sequence encoding Brassica napus HPPD with F383W; vector DBN11744 (nucleic acid)
DNA: ATGGGACATGAAAACGCGGCAGTGTGTGAAACTCAACAACATGATGACGCCGCCTCCCCGGGGTTTAAACTTGTCGGGTTCTCAAAATTTGTTAGGAAGAATCCAAAGTCTGACAAGTTCAAGGTGAAACGCTTCCACCACATCGAGTTCTGGTGCGGGGATGCAACAAATGTTTCACGCCGCTTTTCATGGGGACTAGGAATGAGGTTTAGCGCAAAGAGTGATCTCTCCACTGGTAATATGGTTCATGCGAGCTACTTGCTCACATCTGGAGACCTGAGATTCCTCTTCACCGCACCATATTCTCCCTCCCTGTCAGCTGGTGAAGCTCAGCCTTCAGCAACTGCAAGTATCCCTTCGTTTGATCATGCATCGTGCAGGTCTTTCTTCAGTTCACATGGACTCGGCGTCAGAGCAGTAGCGATCGAAGTAGAGGATGCTGAATCAGCTTTCTCCATATCTGTCGCCAACGGCGCGGTGCCTTCTTCTCCACCAAACGTCTTGAATGGTGCTGTTACCATTGCTGAGGTGAAGCTGTACGGAGATGTTGTTTTAAGATATGTTTCATATTACAATGGGACCGTTTCTTTTCTTCCCGGCTTTGAATCTGTTGATGATACTTCTTCCTTCCCTCTTGATTATGGGATCAGGCGGCTGGACCACGCCGTCGGCAACGTGCCGGAGTTAGGTCCTGCTTTGACATATCTTGCCGGCTTCACTGGATTCCATCAATTTGCAGAGTTTACGGCTGACGACGTGGGGACCGCGGAGAGTGGGCTGAACTCAGCAGTCTTGGCCAACAATGATGAAATGGTGCTCCTCCCCATCAATGAACCTGTGCATGGAACAAAGAGAAAGTCGCAGATTCAAACATTTTTAGAGCACAATGAGGGAGCTGGGCTACAGCACCTCGCATTGATGTCAGAAGATATTTTTCGAACGTTGAGGGAGATGCGGAAACGATCTGGTGTAGGCGGCTTTGACTTCATGCCATCCCCTCCGCCAACCTACTACAAGAACCTGAAGAAGAGGGTTGGAGACGTCCTTTCCGAGGAGCAAATTGAAGAATGTGAGGAGCTTGGAATTCTGGTGGACAGAGATGATCAAGGAACACTACTTCAGATCTTCACAAAACCATTGGGCGACAGGCCAACGATATGGATTGAGATCATTCAGCGCGTTGGATGCATGAAGCGTGATGAGGAAGGGAAGGTCTACCAGAGTGGCGGTTGTGGTGGATTTGGAAAAGGAAATTTTTCTGAGCTGTTCAAAAGCATAGAAGAGTATGAGAAAACATTGGAGGCCAAGCAGCTTGTTGGTTGA
modifications: BnHPPDm-F383W-02 Nucleotide Sequence
notes: vector DBN11744

Legend:
Format in all cases: in vivo
[1] = test system: Arabidopsis thaliana T1 plants; experiment: Topramezone tolerance of transgenic Arabidopsis thaliana T1 plants (spray, bleached leaf area grade, damage score); settings: 7 DAT, Table 4; for Classification and statistics of the grade of pesticide damage: Grade 0 / Classification and statistics of the grade of pesticide damage: Grade 1 / Classification and statistics of the grade of pesticide damage: Grade 2 / Classification and statistics of the grade of pesticide damage: Grade 3: number of plants; for Scores: pesticide damage score 0-100
In short: (§1)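 Read-out: per-plant damage grade 0–3 from proportion of bleached leaf area at 7 DAT (1 <50%, 2 >50%, 3 100%). Plants were T1 transformants, glufosinate-selected, plus wild-type CK, sprayed 18 days post-sowing. Rates: topramezone 25–200, isoxaflutole 35–280, mesotrione 52.5–420 g ai/ha.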

[2] = test system: Arabidopsis thaliana T1 plants; experiment: Mesotrione tolerance of transgenic Arabidopsis thaliana T1 plants (spray, bleached leaf area grade, damage score); set-up: Scores: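 damage score 0-100 computed as Σ(N×S)/(T×M)×100 over grades 0-3 with higher meaning more damage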; settings: Arabidopsis thaliana T1 plants; for Grade 0 (classification and statistics of the grade of pesticide damage; number of plants) / Grade 1 (classification and statistics of the grade of pesticide damage; number of plants) / Grade 2 (classification and statistics of the grade of pesticide damage; number of plants) / Grade 3 (classification and statistics of the grade of pesticide damage; number of plants): 16 plants
In short: as §1

[3] = test system: Arabidopsis thaliana T1 plants; experiment: Isoxaflutole tolerance of transgenic Arabidopsis thaliana T1 plants (spray, bleached leaf area grade, damage score); set-up: Scores (pesticide damage): scale not given here; settings: spray, Arabidopsis thaliana T1 plants; for Classification and statistics of the grade of pesticide damage: Grade 0 (number of plants) / Classification and statistics of the grade of pesticide damage: Grade 1 (number of plants) / Classification and statistics of the grade of pesticide damage: Grade 2 (number of plants) / Classification and statistics of the grade of pesticide damage: Grade 3 (number of plants): 16 plants
In short: as §1

[4] = isoxaflutole 35 g ai/ha (0.5x field concentration)
[5] = isoxaflutole 70 g ai/ha (1x field concentration)

Row | Molecule | Classification and statistics of the grade of pesticide damage: Grade 0 ([1]; topramezone 25 g ai/ha (1×)) | Classification and statistics of the grade of pesticide damage: Grade 1 ([1]; topramezone 25 g ai/ha (1×)) | Classification and statistics of the grade of pesticide damage: Grade 2 ([1]; topramezone 25 g ai/ha (1×)) | Classification and statistics of the grade of pesticide damage: Grade 3 ([1]; topramezone 25 g ai/ha (1×)) | Classification and statistics of the grade of pesticide damage: Grade 0 ([1]; topramezone 100 g ai/ha (4×)) | Classification and statistics of the grade of pesticide damage: Grade 1 ([1]; topramezone 100 g ai/ha (4×)) | Classification and statistics of the grade of pesticide damage: Grade 2 ([1]; topramezone 100 g ai/ha (4×)) | Classification and statistics of the grade of pesticide damage: Grade 3 ([1]; topramezone 100 g ai/ha (4×)) | Scores ([1]; topramezone 25 g ai/ha (1×)) | Scores ([1]; topramezone 100 g ai/ha (4×)) | Resistance evaluation ([1]; topramezone 25 g ai/ha (1×)) | Resistance evaluation ([1]; topramezone 100 g ai/ha (4×)) | Resistance evaluation ([2]; mesotrione 52.5 g ai/ha) | Scores ([2]; mesotrione 52.5 g ai/ha) | Grade 0 (classification and statistics of the grade of pesticide damage; number of plants) ([2]; mesotrione 52.5 g ai/ha) | Grade 1 (classification and statistics of the grade of pesticide damage; number of plants) ([2]; mesotrione 52.5 g ai/ha) | Grade 2 (classification and statistics of the grade of pesticide damage; number of plants) ([2]; mesotrione 52.5 g ai/ha) | Grade 3 (classification and statistics of the grade of pesticide damage; number of plants) ([2]; mesotrione 52.5 g ai/ha) | Resistance evaluation ([2]; mesotrione 105 g ai/ha) | Scores ([2]; mesotrione 105 g ai/ha) | also measured
1 | B1 | 0 | 4 | 12 | 0 | 0 | 0 | 0 | 16 | 58 | 100 | poorly | non-resistant (non-resistant plants (scores 68-100)) | Poorly resistant | 63 | 0 | 4 | 10 | 2 | Non-resistant | 100 | Grade 0 (classification and statistics of the grade of pesticide damage; number of plants) ([2]; mesotrione 105 g ai/ha): 0; Grade 1 (classification and statistics of the grade of pesticide damage; number of plants) ([2]; mesotrione 105 g ai/ha): 0; Grade 2 (classification and statistics of the grade of pesticide damage; number of plants) ([2]; mesotrione 105 g ai/ha): 0; Grade 3 (classification and statistics of the grade of pesticide damage; number of plants) ([2]; mesotrione 105 g ai/ha): 16; Resistance evaluation [3, 4]: Poorly; Scores (pesticide damage) [3, 4]: 52; Classification and statistics of the grade of pesticide damage: Grade 0 (number of plants) [3, 4]: 0; Classification and statistics of the grade of pesticide damage: Grade 1 (number of plants) [3, 4]: 7; Classification and statistics of the grade of pesticide damage: Grade 2 (number of plants) [3, 4]: 9; Classification and statistics of the grade of pesticide damage: Grade 3 (number of plants) [3, 4]: 0; Resistance evaluation [3, 5]: Non-resistant; Scores (pesticide damage) [3, 5]: 100; Classification and statistics of the grade of pesticide damage: Grade 0 (number of plants) [3, 5]: 0; Classification and statistics of the grade of pesticide damage: Grade 1 (number of plants) [3, 5]: 0; Classification and statistics of the grade of pesticide damage: Grade 2 (number of plants) [3, 5]: 0; Classification and statistics of the grade of pesticide damage: Grade 3 (number of plants) [3, 5]: 16
2 | B2 | 0 | 3 | 9 | 4 | 0 | 0 | 0 | 16 | 69 | 100 | non-resistant (non-resistant plants (scores 68-100)) | non-resistant (non-resistant plants (scores 68-100)) | Non-resistant | 100 | 0 | 0 | 0 | 16 | Non-resistant | 100 | Grade 0 (classification and statistics of the grade of pesticide damage; number of plants) ([2]; mesotrione 105 g ai/ha): 0; Grade 1 (classification and statistics of the grade of pesticide damage; number of plants) ([2]; mesotrione 105 g ai/ha): 0; Grade 2 (classification and statistics of the grade of pesticide damage; number of plants) ([2]; mesotrione 105 g ai/ha): 0; Grade 3 (classification and statistics of the grade of pesticide damage; number of plants) ([2]; mesotrione 105 g ai/ha): 16; Resistance evaluation [3, 4]: Non-resistant; Scores (pesticide damage) [3, 4]: 94; Classification and statistics of the grade of pesticide damage: Grade 0 (number of plants) [3, 4]: 0; Classification and statistics of the grade of pesticide damage: Grade 1 (number of plants) [3, 4]: 0; Classification and statistics of the grade of pesticide damage: Grade 2 (number of plants) [3, 4]: 3; Classification and statistics of the grade of pesticide damage: Grade 3 (number of plants) [3, 4]: 13; Resistance evaluation [3, 5]: Non-resistant; Scores (pesticide damage) [3, 5]: 100; Classification and statistics of the grade of pesticide damage: Grade 0 (number of plants) [3, 5]: 0; Classification and statistics of the grade of pesticide damage: Grade 1 (number of plants) [3, 5]: 0; Classification and statistics of the grade of pesticide damage: Grade 2 (number of plants) [3, 5]: 0; Classification and statistics of the grade of pesticide damage: Grade 3 (number of plants) [3, 5]: 16
